Test [1] has as its system E. coli cells expressing an HPPD polypeptide. Kind of test: Brown color bioassay in liquid culture, residual brown color formation (BCF), OD440 after 96 hours. Type of test: cell-based. The following applies: Cmpd. 1 1000 μM, 96 hours. In short, it runs like this: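 E. coli expressing HPPD variants were grown at 30 degrees Celsius from OD600 0.3-0.5 in LB with 5 mM HPP, with or without herbicide (e.g. Cmpd. 1, 1000 μM). After 96 hours, supernatant OD440 was measured; residual brown colour formation compares pigment with and without inhibitor.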

For test [2] the test system is unchanged. Briefly: Brown Color Assay on solid LB-agar, visual score of brown pigment. Type of test: cell-based. Details: key to brown pigment formation: +++: a dark brown coloring as seen for E. coli cells expressing one of the respective mutant HPPD polypeptide without inhibitor; ++: medium brown pigmentation; +: light brown pigmentation; 0: no brown pigmentation development was detected on the LB agar plates. How it is done:
Mutant HPPD polypeptides were analyzed using a brown color assay (WO2014/043435). Bacterial cells expressing the mutant HPPD polypeptide according to the invention were assayed in 96 well format for HPPD inhibitor tolerance by spotting on solid media containing LB-agar, selection agent for the expression vector pSE420(RI)NX (WO2014/043435), 5 mM tyrosine (Sigma-Aldrich, St. Louis, USA), 42 mM succinate (Sigma-Aldrich, St. Louis, USA) and six different concentrations of the HPPD inhibitor herbicide Cmpd. 1 (0-500 μM). In the brown color assay, an overnight culture of the E. coli cells expressing one of the respective mutant HPPD polypeptides were diluted to an OD600 of 1 and 10 μl extract was spotted in triplicates on plates containing 0, 25, 50, 100, 250, or 500 μM of Cmpd. 1. Plates were covered with airpore tape and incubated at 30 degrees C. After 24 hours, the cells were kept in darkness at room temperature and after 7 days the brown pigment formation was scored visually. In the presence of an HPPD inhibitor herbicide, this pigment formation is inhibited and the color of the agar plate will not alter, unless an HPPD inhibitor herbicide tolerant HPPD polypeptide is expressed and active. […] The “++” and “+” scores a medium and light brown pigmentation, respectively, and the “0” means that no brown pigmentation development was detected on the LB agar plates.

Test [3] has as its system transgenic T1 soybean events. Briefly: Field trials of T1 soybean events, leaf damage eight days after application. Type of test: in vivo. As to the method:
Soybean plants expressing an HPPD inhibitor tolerant polypeptide of the present invention alone, or along with a gene conferring tolerance to glyphosate and/or a gene conferring tolerance to glufosinate or having a “plant expression cassette”, which includes only an HPPD inhibitor tolerant polypeptide of the present invention, were tested for tolerance to different HPPD inhibitor herbicide chemical classes. The transgenic plants were routinely analyzed for the expression and presence of the transgenes using the ELISA protein detection method (see detailed description under item D and H). Only plants recovering in the selection media and having a detectable HPPD transgene protein expression were regenerated, transferred to the greenhouse and used at V2-V4 growth stage for the HPPD inhibitor herbicide tolerance analysis of the T0 soybean events in the greenhouse (Example 6). The chemical formulation with HPPD inhibitor herbicides was supplemented with ammonium sulfate and methyl ester rapeseed oil. Herbicide tolerance evaluation was taken 5-21 days after spraying. The best performing independent T0 soybean events were selfed to produce T1 soybean seeds. In the field trails, the advanced T1 soybean seeds were planted and treated with either 210 g/ha of isoxaflutole or 150 g/ha of Cmpd.
In Table 10, the frequency of the soybean events showing a good tolerance, i.e. equal or less than 15% damage of the total leaf area are summarized

Test [4] deals with transgenic soybean T0 events. Kind of test: Greenhouse spray test of T0 soybean events, herbicide tolerance rating 0-3. Type of test: in vivo. As to conditions: Cmpd. 1 300 g AI/ha; for number of events with Herbicide Tolerance Rating 0: five days after application; for number of events with Herbicide Tolerance Rating 1: rating 1 = slight tolerance, 50-95% leaf damage; for number of events with Herbicide Tolerance Rating 2: rating 2 = moderate tolerance, 10-49% of leaf area; for number of events with Herbicide Tolerance Rating 3: rating 3 = good tolerance, less than 10% of leaf area. How it is done:
Tolerant green shoots were transferred to rooting media or grafted. Rooted plantlets were transferred to the greenhouse after an acclimation period. Plants containing the transgene were then sprayed with HPPD inhibitor herbicides, as for example with mesotrione at a rate of 300-600 g AI/ha, or with Cmpd. […] Five to ten days after the application, the symptoms due to the application of the herbicide were evaluated and compared to the symptoms observed on wild-type plants under the same conditions.
For example, T0 soybean plants having a “plant expression cassette”, which includes an HPPD inhibitor tolerant HPPD polypeptide of the present invention, were tested towards the tolerance of Cmpd. 1.
Prior greenhouse trials with the transgenic plants, soybean transformants were routinely analyzed for the expression and presence of the transgenes using the ELISA protein detection method (see detailed description under item D and H). Only plants recovering in the selection media and having a detectable HPPD transgene protein expression were used for the herbicide tolerance analysis. A DeVries Tracker Sprayer was calibrated prior to each spraying. The chemical formulation used for Cmpd. 1 was supplemented with ammonium sulfate and methylated rape seed oil. Spray tests were conducted with a concentration, which equals to 300 grams AI per hectare (300 g AI/ha). Tolerance was evaluated 5 days after spraying. […] A rating of “3” was assigned to plants showing good tolerance, i.e. less than 10% of the leaf area from the top three trifoliate leaves showing chlorosis or only very slight bleaching.

Test [5] relates to transgenic soybean T0 events. Kind of test: Additional greenhouse trials of T0 soybean events, leaf damage score 0-100 as percentiles. The following applies: Cmpd. 1 300 g AI/ha, five days. Type of test: in vivo. In a few lines:
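Independent T0 events (21 to 94 per construct, single cassette insertion) expressing mutant HPPD were sprayed with HPPD inhibitor herbicide in the greenhouse. Leaf damage scored 5 days after application from 0 (no damage) to 100 (complete bleaching). Scores reported as percentile distributions (25th, median, 75th) per construct.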

Where [6] appears, read: 25 μM Cmpd. 1, scored after 7 days.
The mark [7] stands for this setting: 50 μM Cmpd. 1, scored after 7 days.
Where [8] appears, read: 100 μM Cmpd. 1, scored after 7 days.
Where [9] appears, read: 250 μM Cmpd. 1, scored after 7 days.
The mark [10] stands for this setting: 500 μM Cmpd. 1, scored after 7 days.
The mark [11] stands for this setting: 150 g/ha Cmpd. 1, stage V2-V4, eight days after application.
Setting [12] is: 210 g/ha isoxaflutole, stage V2-V4, eight days after application.

Consider four molecules from patent US10597674B2, “HPPD variants and methods of use” (BASF Agricultural Solutions Seed, US LLC, priority 2015, dated 2020).

Substitutions are numbered along the chain they refer to. Names and notes keep the numbering of the source.

B1: SEQ ID NO: 2: prior art mutant HPPD polypeptide (WO2014/043435): E335P G336W K339A A340Q (protein)
chain: MADLYENPMGLMGFEFIEFASPTPGTLEPIFEIMGFTKVATHRSKNVHLYRQGEINLILNNEPNSIASYFAAEHGPSVCGMAFRVKDSQKAYNRALELGAQPIHIDTGPMELNLPAIKGIGGAPLYLIDRFGEGSSIYDIDFVYLEGVERNPVGAGLKVIDHLTHNVYRGRMVYWANFYEKLFNFREARYFDIKGEYTGLTSKAMSAPDGMIRIPLNEESSKGAGQIEEFLMQFNGEGIQHVAFLTDDLVKTWDALKKIGMRFMTAPPDTYYEMLEGRLPDHGEPVDQLQARGILLDGSSVEGDKRLLLQIFSETLMGPVFFEFIQRKGDDGFGPWNFAQLFESIERDQVRRGVLTAD
modifications: mutant HPPD polypeptide
notes: prior art mutant HPPD polypeptide (WO2014/043435): E335P G336W K339A A340Q
In the case of B1, the “brown pigmentation in the presence of the HPPD inhibitor, in words” value in test [1] is reported as “did not produce a substantial brown pigmentation”. The brown pigment formation result in test [2] (setting [6]) is “++”; in test [2] (setting [7]), “++”; in test [2] (setting [8]) it was “++”; in test [2] (setting [9]), “+”; in test [2] (setting [10]), 0. Moreover, the entries for the “brown pigmentation, in words” value in test [2] (250 μM Cmpd. 1) and in test [2] (500 μM Cmpd. 1) were “only a slight brown pigmentation” and “lost their brown pigmentation”, respectively. For the same molecule, the “Frequency in the population (events with ≤15% leaf damage)” value in test [3] (setting [11]) was 41%; in test [3] (setting [12]) it was 26%. Moreover, the “Independent events with ≤15% leaf damage after spray” value in test [3] (setting [11]) came out at 16; in test [3] (setting [12]) it was 10. Further, the “number of events with Herbicide Tolerance Rating 0” value in test [4] was found to be 5. For the same molecule, the “Percentage events rated “2 & 3”” value in test [4] (five days, less than 50% leaf damage) was 83.3%. Besides, the “number of events with Herbicide Tolerance Rating 1” value in test [4] (five days) worked out at 10. For the same molecule, the “number of events with Herbicide Tolerance Rating 2” value in test [4] (five days) is on record as 26. In test [4] (five days), the “number of events with Herbicide Tolerance Rating 3” value is on record as 49. For the same molecule, in test [5] (75th minus 25th percentile), the “leaf damage score, Interquartile range” value is recorded as 30.0. Moreover, the “leaf damage score, 25th percentile” value in test [5] (scale 0 (no damage) to 100 (complete bleaching)) is listed as 15.0. The “leaf damage score, 75th percentile” value in test [5] (scale 0-100) amounted to 45.0. In addition, in test [5] (scale 0-100), the “leaf damage score, 90th percentile” value is recorded as 87.0. Also, the “leaf damage score, Median” value in test [5] (scale 0-100) turned out to be 20.0.

B2: SEQ ID NO: 31: mutant HPPD polypeptide: P268G T270E E335P G336H N337S A340V I345V (protein)
chain: B1 chain with P268G, T270E, W336H, N337S, A339K, Q340V, I345V
modifications: mutant HPPD polypeptide
notes: mutant HPPD polypeptide: P268G T270E E335P G336H N337S A340V I345V
In the case of B2, the brown pigment formation entry in test [2] (setting [6]) is recorded as “+++”; in test [2] (setting [7]), “+++”; in test [2] (setting [8]), “+++”; in test [2] (setting [9]), “++”; in test [2] (setting [10]), “+”. Also, the “Frequency in the population (events with ≤15% leaf damage)” value worked out at 86% in test [3] (setting [11]) and 93% in test [3] (setting [12]). Moreover, the results for the “Independent events with ≤15% leaf damage after spray” value in test [3] (setting [11]) and in test [3] (setting [12]) were 12 and 13, respectively. Also, in test [4], the “number of events with Herbicide Tolerance Rating 0” value was found to be 4. Further, the “number of events with Herbicide Tolerance Rating 1” value in test [4] (five days) is recorded as 1. Besides, in test [4] (five days), the “number of events with Herbicide Tolerance Rating 2” value worked out at 21. For the same molecule, the “number of events with Herbicide Tolerance Rating 3” value in test [4] (five days) stood at 30.

B3: SEQ ID NO: 96: mutant HPPD polypeptide: R213K P268G T270E E335P G336H N337S A340V I345V (protein)
chain: B1 chain with R213K, P268G, T270E, W336H, N337S, A339K, Q340V, I345V
modifications: mutant HPPD polypeptide
notes: mutant HPPD polypeptide: R213K P268G T270E E335P G336H N337S A340V I345V
Consider B3, for which the brown pigment formation result in test [2] (setting [6]) was “+++”; in test [2] (setting [7]), “++”; in test [2] (setting [8]) it was “++”; in test [2] (setting [9]) it was “++”; in test [2] (setting [10]), “+”. For the same molecule, the entries for the “Frequency in the population (events with ≤15% leaf damage)” value in test [3] (setting [11]) and in test [3] (setting [12]) were 70% and 55%, respectively. Besides, the “Independent events with ≤15% leaf damage after spray” value amounted to 14 in test [3] (setting [11]) and 11 in test [3] (setting [12]). Besides, in test [4], the “number of events with Herbicide Tolerance Rating 0” value stood at 0. Further, the “number of events with Herbicide Tolerance Rating 1” value in test [4] (five days) worked out at 5. The “number of events with Herbicide Tolerance Rating 2” value in test [4] (five days) was found to be 43. In addition, in test [4] (five days), the “number of events with Herbicide Tolerance Rating 3” value turned out to be 34.

B4: SEQ ID NO: 32: mutant HPPD polypeptide: P268R T270E E335P G336H N337S A340V I345V (protein)
chain: B1 chain with P268R, T270E, W336H, N337S, A339K, Q340V, I345V
modifications: mutant HPPD polypeptide
notes: mutant HPPD polypeptide: P268R T270E E335P G336H N337S A340V I345V
For B4, the brown pigment formation entry is given as “+++” in test [2] (setting [6]); “+++” in test [2] (setting [7]); “+++” in test [2] (setting [8]); “++” in test [2] (setting [9]); “+” in test [2] (setting [10]). The figures for the “Frequency in the population (events with ≤15% leaf damage)” value in test [3] (setting [11]) and in test [3] (setting [12]) were 42% and 50%, respectively. Also, the “Independent events with ≤15% leaf damage after spray” value in test [3] (setting [11]) was determined as 10; in test [3] (setting [12]), 12. Further, the “proportion of T0 soybean events with less than 10% leaf damage” value in test [4] (five days) is recorded as approximately 72%. In test [4], the “number of events with Herbicide Tolerance Rating 0” value worked out at 1. For the same molecule, the “number of events with Herbicide Tolerance Rating 1” value in test [4] (five days) came out at 0. The “number of events with Herbicide Tolerance Rating 2” value in test [4] (five days) is 10. For the same molecule, the “number of events with Herbicide Tolerance Rating 3” value in test [4] (five days) was found to be 28.
